Here are results for one substance from patent publication US20100062980A1, “THERAPEUTIC USES OF BETA-ANTAGONISTS” (priority 2006, published 2010).

The series concerns Swiss albino male mice. The class given is in vivo. As to conditions: mouse, in vivo, 2.5 mg/kg. The text has this: Swiss albino male mice (˜20 g) were used for the in vivo toxicity study. Male Sprague-Dawley (SD) rats were used for electrocardiogram (ECG) monitoring (3-4 weeks old, ˜80-100 g) and the Langendorff isolated perfused heart experiments (8 weeks old, ˜250 g). Animals were acquired from the university Laboratory Animal Center (LAC) and were acclimatized to the Animal Holding Unit surroundings for at least 3 days prior to the experiments. Animals were kept under standard conditions with food and water available ad lib. All animal experiments were conducted according to the protocol (776/05a) approved by the Institutional Animal Care and Use Committee (IACUC) of the National University of Singapore.
The protein was dissolved in 200 μl of 0.9% NaCl (Braun, Malaysia) and administered through the intra-peritoneal (i.p.) route for the in vivo toxicity study in mice. Intra-tail vein (i.t.v.) administration was done in the ECG monitoring study in rats. The various protein doses were dissolved in 200 μl of 0.9% NaCl solution and injected into the tail vein using a 27 G ½ needle (Becton Dickinson, Franklin Lakes, N.J.) held at an angle of about 10° to the tail. […]
After purification of the protein from snake venom, i.p. doses of 1 mg/kg, 10 mg/kg and 100 mg/kg were administered to healthy male mice (three animals per group) and the symptoms were observed and recorded. […]

Regarding α-bungarotoxin [reference compound], the symptoms result was “severe paralysis of the hind limbs”.
